Assay results from paper PMC5688200, “Overexpression of the transcription factor NF-YC9 confers abscisic acid hypersensitivity in Arabidopsis”.

Tests used:
NF-YC9-6His = molecular target: T1, NF-YC9-6His (Arabidopsis thaliana, UniProt Q8L4B2 1-231); experiment: EMSA; 5 mM MgCl2, poly(dI-dC); NF-YC9 alone; 25 mM HEPES pH 8.0, 40 mM KCl, 5 mM MgCl2, 1 mM DTT, 1 mM EDTA, 8% glycerol, 1 ug/uL poly(dI-dC), 20 fmol probe, 30 min room temperature, 5% native PAGE; conditions: protein: recombinant; tags: C-terminal 6His (codons in reverse primer); label: 5' biotin; blunt
T1 sequence: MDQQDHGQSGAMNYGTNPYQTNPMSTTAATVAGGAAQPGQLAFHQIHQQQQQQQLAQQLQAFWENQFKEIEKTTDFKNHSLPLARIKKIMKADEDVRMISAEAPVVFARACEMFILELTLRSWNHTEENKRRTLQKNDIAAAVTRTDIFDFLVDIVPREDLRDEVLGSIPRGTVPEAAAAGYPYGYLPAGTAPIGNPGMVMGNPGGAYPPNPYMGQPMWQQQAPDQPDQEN

ABI5-6His = molecular target: T2, ABI5-6His (Arabidopsis thaliana, UniProt Q9SJN0 1-442); experiment: EMSA; 5 mM MgCl2, poly(dI-dC); ABI5 alone, 1 ug; 25 mM HEPES pH 8.0, 40 mM KCl, 5 mM MgCl2, 1 mM DTT, 1 mM EDTA, 8% glycerol, 1 ug/uL poly(dI-dC), 20 fmol probe, 30 min room temperature, 5% native PAGE; conditions: protein: recombinant; tags: C-terminal 6His (codons in reverse primer); chain copies: 2; label: 5' biotin; blunt
T2 sequence: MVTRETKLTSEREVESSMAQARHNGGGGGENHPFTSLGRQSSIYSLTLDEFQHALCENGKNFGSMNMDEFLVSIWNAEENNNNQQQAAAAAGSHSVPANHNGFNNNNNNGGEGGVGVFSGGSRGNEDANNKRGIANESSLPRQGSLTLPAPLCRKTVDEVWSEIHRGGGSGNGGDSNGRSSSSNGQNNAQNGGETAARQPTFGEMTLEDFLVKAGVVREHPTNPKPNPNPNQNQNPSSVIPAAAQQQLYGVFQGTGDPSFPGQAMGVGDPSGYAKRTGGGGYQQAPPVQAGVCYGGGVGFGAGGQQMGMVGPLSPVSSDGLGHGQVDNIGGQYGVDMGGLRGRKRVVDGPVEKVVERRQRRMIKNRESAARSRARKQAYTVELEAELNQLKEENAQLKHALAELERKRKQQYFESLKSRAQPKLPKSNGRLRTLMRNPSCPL

B1: EM6 promoter probe (-277 to -220, contains pEm6.2) (dsDNA)
DNA 1: ACCACGTTCAAAGTATACGTCAGCTAATAAAGTCAGACACGTGGCATGTCACCAAGAA
DNA 2: TTCTTGGTGACATGCCACGTGTCTGACTTTATTAGCTGACGTATACTTTGAACGTGGT
B1: no binding (NF-YC9-6His); binds (ABI5-6His).
